Experimental data taken from paper PMC9606039 (2022).
Numbering of substitutions follows the chain as printed. In names and notes the source's numbering stands.

B1: LY-CoV1404 Fab (Fab, V domains shown)
VH: QITLKESGPTLVKPTQTLTLTCTFSGFSLSISGVGVGWLRQPPGKALEWLALIYWDDDKRYSPSLKSRLTISKDTSKNQVVLKMTNIDPVDTATYYCAHHSISTIFDHWGQGTLVTVSS
VL: QSALTQPASVSGSPGQSITISCTATSSDVGDYNYVSWYQQHPGKAPKLMIFEVSDRPSGISNRFSGSKSGNTASLTISGLQAEDEADYYCSSYTTSSAVFGGGTKLTVL
B2: 2-7 D54N Fab (Fab, V domains shown)
VH: B1 VH with I31T, L39I, D56N, S72T, K83T, I87M, S101K, S103E, T104R, H108Y
VL: B1 VL with T5A, A24G, D31A, F51Y, E52D, D55K, I60V, A98T
B3: 2-7 Fab (Fab, V domains shown)
VH: B1 VH with I31T, L39I, S72T, K83T, I87M, S101K, S103E, T104R, H108Y
VL: B1 VL with T5A, A24G, D31A, F51Y, E52D, D55K, I60V, A98T

These binders were tested against receptor-binding domain (RBD) (residues 319-541) of the SARS-CoV-2 spike (S) protein (SARS-CoV-2, UniProt P0DTC2 319-541) (assay: BLI).
With B1 the Kd was 1.6 nM. B2 showed a Kd of over 5000 nM. B3 gave a Kd of 38 nM.
